In IntAct's records for PubMed 25910212:

B1: DNA mismatch repair protein Mlh1 (Homo sapiens), P40692 (parent)
chain: MSFVAGVIRRLDETVVNRIAAGEVIQRPANAIKEMIENCLDAKSTSIQVIVKEGGLKLIQIQDNGTGIRKEDLDIVCERFTTSKLQSFEDLASISTYGFRGEALASISHVAHVTITTKTADGKCAYRASYSDGKLKAPPKPCAGNQGTQITVEDLFYNIATRRKALKNPSEEYGKILEVVGRYSVHNAGISFSVKKQGETVADVRTLPNASTVDNIRSIFGNAVSRELIEIGCEDKTLAFKMNGYISNANYSVKKCIFLLFINHRLVESTSLRKAIETVYAAYLPKNTHPFLYLSLEISPQNVDVNVHPTKHEVHFLHEESILERVQQHIESKLLGSNSSRMYFTQTLLPGLAGPSGEMVKSTTSLTSSSTSGSSDKVYAHQMVRTDSREQKLDAFLQPLSKPLSSQPQAIVTEDKTDISSGRARQQDEEMLELPAPAEVAAKNQSLEGDTTKGTSEMSEKRGPTSSNPRKRHREDSDVEMVEDDSRKEMTAACTPRRRIINLTSVLSLQEEINEQGHEVLREMLHNHSFVGCVNPQWALAQHQTKLYLLNTTKLSEELFYQILIYDFANFGVLRLSEPAPLFDLAMLALDSPESGWTEEDGPKEGLAEYIVEFLKKKAEMLADYFSLEIDEEGNLIGLPLLIDNYVPPLEGLPIFILRLATEVNWDEEKECFESLSKECAMFYSIRKQYISEESTLSGQQSEVPGSIPNSWKWTVEHIVYKALRSHILPPKHFTEDGNILQLANLPDLYKVFERC
B2: Acetylcholine receptor subunit gamma (Homo sapiens), P07510-2 (parent)
chain: MHGGQGPLLLLLLLAVCLGAQGRNQEERLLADLMQNYDPNLRPAERDSDVVNVSLKLTLTNLISLNEREEALTTNVWIEMQWCDYRLRWDPRDYEGLWVLRVPSTMVWRPDIVLENKSQTYSTNEIDLQLSQEDGQTIEWIFIDPEAFTENGEWAIQHRPAKMLLDPAAPAQEAGHQKVVFYLLIQRKPLFYVINIIAPCVLISSVAILIHFLPAKAGGQKCTVAINVLLAQTVFLFLVAKKVPETSQAVPLISKYLTFLLVVTILIVVNAVVVLNVSLRSPHTHSMARGVRKVFLRLLPQLLRMHVRPLAPAAVQDTQSRLQNGSSGWSITTGEEVALCLPRSELLFQQWQRQGLVAAALEKLEKGPELGLSQFCGSLKQAAPAIQACVEACNLIACARHQQSHFDNGNEEWFLVGRVLDRVCFLAMLSLFICGTAGIFLMAHYNRVPALPFPGDPRPYLPSPD
B3: Arylsulfatase A (Homo sapiens), P15289 (parent)
chain: MGAPRSLLLALAAGLAVARPPNIVLIFADDLGYGDLGCYGHPSSTTPNLDQLAAGGLRFTDFYVPVSLCTPSRAALLTGRLPVRMGMYPGVLVPSSRGGLPLEEVTVAEVLAARGYLTGMAGKWHLGVGPEGAFLPPHQGFHRFLGIPYSHDQGPCQNLTCFPPATPCDGGCDQGLVPIPLLANLSVEAQPPWLPGLEARYMAFAHDLMADAQRQDRPFFLYYASHHTHYPQFSGQSFAERSGRGPFGDSLMELDAAVGTLMTAIGDLGLLEETLVIFTADNGPETMRMSRGGCSGLLRCGKGTTYEGGVREPALAFWPGHIAPGVTHELASSLDLLPTLAALAGAPLPNVTLDGFDLSPLLLGTGKSPRQSLFFYPSYPDEVRGVFAVRTGKYKAHFFTQGSAHSDTTADPACHASSSLTAHEPPLLYDLSKDPGENYNLLGGVAGATPEVLQALKQLQLLKAQLDAAVTFGPSQVARGEDPALQICCHPGCTPRPACCHCPDPHA
partner: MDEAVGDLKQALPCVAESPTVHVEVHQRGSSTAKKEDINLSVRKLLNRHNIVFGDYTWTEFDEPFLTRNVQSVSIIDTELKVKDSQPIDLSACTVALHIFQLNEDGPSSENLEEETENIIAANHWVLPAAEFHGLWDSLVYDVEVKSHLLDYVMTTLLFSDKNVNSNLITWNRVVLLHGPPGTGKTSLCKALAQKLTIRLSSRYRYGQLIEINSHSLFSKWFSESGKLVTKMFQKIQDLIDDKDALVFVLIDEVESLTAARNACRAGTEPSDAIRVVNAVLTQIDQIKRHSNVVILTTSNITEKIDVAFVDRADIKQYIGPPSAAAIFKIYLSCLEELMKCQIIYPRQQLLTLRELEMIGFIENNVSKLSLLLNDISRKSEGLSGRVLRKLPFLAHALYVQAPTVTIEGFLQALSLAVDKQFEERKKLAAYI
B4: Cyclin-dependent kinase 4 inhibitor C (Homo sapiens), P42773 (parent)
chain: MAEPWGNELASAAARGDLEQLTSLLQNNVNVNAQNGFGRTALQVMKLGNPEIARRLLLRGANPDLKDRTGFAVIHDAARAGFLDTLQTLLEFQADVNIEDNEGNLPLHLAAKEGHLRVVEFLVKHTASNVGHRNHKGDTACDLARLYGRNEVVSLMQANGAGGATNLQ
partner: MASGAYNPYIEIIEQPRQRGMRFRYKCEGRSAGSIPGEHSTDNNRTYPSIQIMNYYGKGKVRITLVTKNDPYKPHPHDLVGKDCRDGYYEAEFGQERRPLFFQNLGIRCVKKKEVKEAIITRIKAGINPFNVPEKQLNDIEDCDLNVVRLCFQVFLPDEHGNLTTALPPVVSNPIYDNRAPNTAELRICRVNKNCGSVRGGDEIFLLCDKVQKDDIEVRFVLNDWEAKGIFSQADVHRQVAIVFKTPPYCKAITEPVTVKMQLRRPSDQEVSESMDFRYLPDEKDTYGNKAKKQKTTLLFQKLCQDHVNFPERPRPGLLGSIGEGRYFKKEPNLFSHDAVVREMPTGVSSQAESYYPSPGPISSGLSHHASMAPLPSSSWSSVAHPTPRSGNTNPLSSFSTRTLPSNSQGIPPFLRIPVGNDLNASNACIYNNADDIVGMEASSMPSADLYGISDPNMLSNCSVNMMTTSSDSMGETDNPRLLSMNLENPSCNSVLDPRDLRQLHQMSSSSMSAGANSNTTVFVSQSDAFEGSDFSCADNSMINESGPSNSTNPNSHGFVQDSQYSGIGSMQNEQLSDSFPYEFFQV
B5: Phytanoyl-CoA dioxygenase, peroxisomal (Homo sapiens), O14832 (parent)
chain: MEQLRAAARLQIVLGHLGRPSAGAVVAHPTSGTISSASFHPQQFQYTLDNNVLTLEQRKFYEENGFLVIKNLVPDADIQRFRNEFEKICRKEVKPLGLTVMRDVTISKSEYAPSEKMITKVQDFQEDKELFRYCTLPEILKYVECFTGPNIMAMHTMLINKPPDSGKKTSRHPLHQDLHYFPFRPSDLIVCAWTAMEHISRNNGCLVVLPGTHKGSLKPHDYPKWEGGVNKMFHGIQDYEENKARVHLVMEKGDTVFFHPLLIHGSGQNKTQGFRKAISCHFASADCHYIDVKGTSQENIEKEVVGIAHKFFGAENSVNLKDIWMFRARLVKGERTNL

Variants of: B1
Details: with AP2B1, P63010-2

| Variant | effect of a mutation on the interaction |
| --- | --- |
| G244D | with no effect |

Variants of: B1
Details: with ccd33_human CCDC33, Q8N5R6

| Variant | effect of a mutation on the interaction |
| --- | --- |
| G244D | disrupting interaction strength |

Variants of: B1
Details: with taso2_human TASOR2, Q5VWN6

| Variant | effect of a mutation on the interaction |
| --- | --- |
| G244D | disrupting interaction strength |

Variants of: B2
Details: with mdfi_human MDFI

| Variant | effect of a mutation on the interaction |
| --- | --- |
| R86C | disrupting interaction strength |
| V107G | disrupting interaction strength |
| R187C | disrupting interaction strength |

Variants of: B2
Details: with nt2na_human NOTCH2NLA

| Variant | effect of a mutation on the interaction |
| --- | --- |
| R86C | disrupting interaction strength |
| V107G | disrupting interaction strength |
| R187C | disrupting interaction strength |

Variants of: B2
Details: with k1h1_human KRT31, Q15323

| Variant | effect of a mutation on the interaction |
| --- | --- |
| R86C | disrupting interaction strength |
| V107G | disrupting interaction strength |
| R187C | disrupting interaction strength |

Variants of: B2
Details: with meox2_human MEOX2, P50222

| Variant | effect of a mutation on the interaction |
| --- | --- |
| R86C | disrupting interaction strength |
| V107G | disrupting interaction strength |
| R187C | disrupting interaction strength |

Variants of: B3
Details: with pch2_human TRIP13, Q15645

| Variant | effect of a mutation on the interaction |
| --- | --- |
| Y201C | with no effect |
| N350S | with no effect |

Variants of: B4
Details: with REL

| Variant | effect of a mutation on the interaction |
| --- | --- |
| V31L | disrupting interaction strength |

Variants of: B5
Details: with fam9b_human FAM9B

| Variant | effect of a mutation on the interaction |
| --- | --- |
| N269H | with no effect |
| N83Y | disrupting interaction strength |
| P29S | with no effect |
